Source: patent US8361965B2, “Recombinant chimeric protein of neutrophil inhibitory factor and hirugen, and pharmaceutical composition thereof” (Lunan Pharmaceutical Group Corporation, priority 2008, dated 2013)

Assays:
[1] = test system: human peripheral blood leukocyte; assay: inhibition of H2O2 release from human peripheral blood leukocyte; type: cell-based
Experimental: 10 ml venous blood was taken from healthy people, and heparin sodium was added for anticoagulation. 10 ml HAS buffer (comprising RPMI 1640+10 mM HEPES+1.2 mM CaCl2+1.0 mM MgCl2+1% HAS, pH 7.4) was added into the blood and mixed. Leukocyte separation solution (Sangon) was charged into a sterile centrifuge tube, and whole blood mixture of the same volume was added slowly, and then centrifuged at 2000 rpm for 15 min. Leukocyte solution was taken from the interface and appropriate 1640 culture medium was added, centrifuged for 10 min, and washed twice. The supernatant was discarded, and appropriate HAS Buffer was added for resuspending the precipitate so as to prepare leukocyte suspension. The cell density was counted and adjusted to 4×10^7/ml. The product was separated at 37° C. and used within an hour.
Coating the 24-well plate with Hank's solution comprising 50% fetal bovine serum and culturing at 37 for 60 min; washing the plate with 0.15 M NaCl twice; diluting the cells to 6.0×10^6/ml with the buffer solution for release assay, adding cells, and culturing at 37 for 5 min; adding FMLP to the final concentration of 250 nM; adding TNHH samples at different concentrations and culturing at 37 for 60 min; pipetting the cell suspension, centrifuging at 8000×g for 3 min, and collecting the supernatant. Adding the supernatant into multiple-wells of a 96-well ELISA plate, adding 1 N NaOH (25 μl) for stopping the reaction, and determining the OD at 610 nm wavelength. Calculating the IC50 value of TNHH for inhibiting H2O2 release, and using the standard H2O2 solution as a control.

blood coagulation system = assay: effects on blood coagulation system of New Zealand rabbits in vivo (APTT, PT, TT); set-up: species or system New Zealand rabbit; PT: unit not given beside the values; APTT / TT: unit not given here
Experimental: Medicaments were administrated via intravenous injection from marginal ear vein, and 1.8 ml blood was harvested from marginal ear veins at the time of before administration (0 min), and 10 min, 30 min, 60 min, 120 min and 240 min after administration, respectively (the time for injecting is 2 min). 3.2% sodium citrate (9:1) was added for anticoagulation and then mixed and centrifuged at 3000 rpm/min for 3 min. The plasma was send to Department of Clinical Laboratory, Southwest Hospital for determining blood coagulation indexes (APTT, TT and PT) with a full automatic coagulation analyzer and the difference before and after administration was obtained by comparison.

thrombin = thrombin (Homo sapiens, UniProt P00734); assay: in vitro binding of TNHH to thrombin (SEC-HPLC); set-up: Human thrombin (127 Unit/ampoule), Lot No.: 20021105; purchased National Institute for The Control of Pharmaceutical and Biological Products Lot No.: 20021105; settings: 37° C. 1 h
Experimental: Weigh TNHH, dilute to 1.0 mg/ml with phosphate buffer solution, and is ready for use; Weight fibrin precisely, dissolve and dilute to 0.1 mg/ml with phosphate buffer solution, and is ready for use; Weigh thrombin, dissolve and dilute to 100 units/ml with phosphate buffer solution, which is ready for use.
Following the below procedures, test materials were reacted at 37° C. for 1 h, and then analyzed under the following chromatographic conditions.
(1) pipette test material solutions (20 μl for each), loading for analysis, and recording each retention time.
(2) pipette fibrin and thrombin solutions (0.5 ml for each), mixing and reacting at 37° C. for 1 h, and loading 20 μl sample for analysis.
(3) pipette TNHH and fibrin solutions (0.5 ml for each), mixing and reacting at 37° C. for 1 h, and loading 20 μl sample for analysis.
(4) pipette TNHH and thrombin solutions (0.5 ml for each), mixing and reacting at 37° C. for 1 h, and loading 20 μl sample for analysis.
(5) pipette TNHH and mixture of fibrin and thrombin solutions (0.5 ml for each), mixing and reacting at 37° C. for 1 h, and loading 20 μl sample for analysis.
Flow rate 0.5 ml/min; detection wavelength: 214 nm, Column temperature: room temperature; chromatogram recording time: 25 min.

[2] = TNHH 3.375 mg/kg i.v., 0 min (before administration)
[3] = TNHH 6.675 mg/kg i.v., 0 min (before administration)
[4] = dose in great excess of the effective dose

B1: TNHH: recombinant chimeric protein of neutrophil inhibitory factor and hirugen, Met-NIF-GGGGG-FPRPGSGG-Hirugen (SEQ ID NO: 3), expressed in E. coli (protein)
chain: MNEHNLRCPQNGTEMPGFNDSIRLQFLAMHNGYRSKLALGHISITEESESDDDDDFGFLPDFAPRASKMRYLEYDCEAEKSAYMSARNCSDSSSPPEGYDENKYIFENSNNISEAALKAMISWAKEAFNLNKTKEGEGVLYRSNHDISNFANLAWDAREKFGCAVVNCPLGEIDDETNHDGETYATTIHVVCHYPKINKTEGQPIYKVGTPCDDCSEYTKKADNTTSADPVCIPDDGVCFIGSKADYDSKEFYRFRELGGGGGFPRPGSGGNGDFEEIPEEYL
modifications: N-terminal Met
For B1, the “IC50 value for inhibiting H2O2 release” value ([1]; FMLP 250 nM, 60 min) was 8.5 µg/mL, the “Inhibition ratio (%)” value ([1]; TNHH 0.781 μg/ml) was −1.3% and the “Inhibition ratio (%)” value ([1]; TNHH 1.562 μg/ml) was 6.55%. The “Inhibition ratio (%)” value ([1]; TNHH 3.125 μg/ml) was 22.76%, the “Inhibition ratio (%)” value ([1]; TNHH 6.25 μg/ml) was 40.17% and the “Inhibition ratio (%)” value ([1]; TNHH 12.5 μg/ml) was 50.82%. For the same molecule, the “Inhibition ratio (%)” value ([1]; TNHH 25 μg/ml) was 61.45%, the “Inhibition ratio (%)” value ([1]; TNHH 50 μg/ml) was 79.91% and the “Inhibition ratio (%)” value ([1]; TNHH 100 μg/ml) was 81.99%. The “inhibition ratio compared with the control group” value ([1]; concentration not given) was “about 70%”, the APTT (blood coagulation system; [2]) was 36.45 ± 6.60 and the PT (blood coagulation system; [2]) was 6.78 ± 0.28. It also gave a TT (blood coagulation system; [2]) of 15.57 ± 1.09, an APTT (blood coagulation system; TNHH 3.375 mg/kg i.v., 10 min) of 37.38 ± 6.35 and a PT (blood coagulation system; TNHH 3.375 mg/kg i.v., 10 min) of 6.90 ± 0.21. It also gave a TT (blood coagulation system; TNHH 3.375 mg/kg i.v., 10 min) of 23.23 ± 2.47, an APTT (blood coagulation system; TNHH 3.375 mg/kg i.v., 30 min) of 31.97 ± 2.11 and a PT (blood coagulation system; TNHH 3.375 mg/kg i.v., 30 min) of 6.85 ± 0.23. For the same molecule, the TT (blood coagulation system; TNHH 3.375 mg/kg i.v., 30 min) was 16.13 ± 1.31, the APTT (blood coagulation system; TNHH 3.375 mg/kg i.v., 60 min) was 31.93 ± 2.39 and the PT (blood coagulation system; TNHH 3.375 mg/kg i.v., 60 min) was 6.78 ± 0.22. It also gave a TT (blood coagulation system; TNHH 3.375 mg/kg i.v., 60 min) of 14.75 ± 1.44, an APTT (blood coagulation system; TNHH 3.375 mg/kg i.v., 120 min) of 30.52 ± 6.86 and a PT (blood coagulation system; TNHH 3.375 mg/kg i.v., 120 min) of 6.87 ± 0.32. The TT (blood coagulation system; TNHH 3.375 mg/kg i.v., 120 min) was 14.02 ± 0.79, the APTT (blood coagulation system; TNHH 3.375 mg/kg i.v., 240 min) was 35.65 ± 9.36 and the PT (blood coagulation system; TNHH 3.375 mg/kg i.v., 240 min) was 7.02 ± 0.24. The TT (blood coagulation system; TNHH 3.375 mg/kg i.v., 240 min) was 14.65 ± 1.14, the APTT (blood coagulation system; [3]) was 44.25 ± 5.39 and the PT (blood coagulation system; [3]) was 6.88 ± 0.17. For the same molecule, the TT (blood coagulation system; [3]) was 15.97 ± 1.42, the APTT (blood coagulation system; TNHH 6.675 mg/kg i.v., 10 min) was 39.87 ± 4.98 and the PT (blood coagulation system; TNHH 6.675 mg/kg i.v., 10 min) was 7.17 ± 0.36. The TT (blood coagulation system; TNHH 6.675 mg/kg i.v., 10 min) was 33.57 ± 4.47, the APTT (blood coagulation system; TNHH 6.675 mg/kg i.v., 30 min) was 37.98 ± 4.77 and the PT (blood coagulation system; TNHH 6.675 mg/kg i.v., 30 min) was 7.12 ± 0.47. For the same molecule, the TT (blood coagulation system; TNHH 6.675 mg/kg i.v., 30 min) was 21.63 ± 1.71, the APTT (blood coagulation system; TNHH 6.675 mg/kg i.v., 60 min) was 36.17 ± 6.76 and the PT (blood coagulation system; TNHH 6.675 mg/kg i.v., 60 min) was 7.17 ± 0.40. It also gave a TT (blood coagulation system; TNHH 6.675 mg/kg i.v., 60 min) of 15.55 ± 0.95, an APTT (blood coagulation system; TNHH 6.675 mg/kg i.v., 120 min) of 38.95 ± 8.85 and a PT (blood coagulation system; TNHH 6.675 mg/kg i.v., 120 min) of 7.62 ± 0.64. The TT (blood coagulation system; TNHH 6.675 mg/kg i.v., 120 min) was 15.00 ± 1.51, the APTT (blood coagulation system; TNHH 6.675 mg/kg i.v., 240 min) was 38.03 ± 9.11 and the PT (blood coagulation system; TNHH 6.675 mg/kg i.v., 240 min) was 7.97 ± 0.99. The TT (blood coagulation system; TNHH 6.675 mg/kg i.v., 240 min) was 13.33 ± 0.73, the “extension time of PT” value (blood coagulation system; TNHH 6.675 mg/kg i.v., vs 0 min) was “less than 3 seconds” and the “effects on the endogenous blood coagulation pathway” value (blood coagulation system; [4]) was “no effects”. The “effects on the exogenous blood coagulation pathway and fibrinolytic system” value (blood coagulation system; [4]) was “some effects” and the binding with thrombin (thrombin) was “could bind with fibrin and thrombin”.
